Patent US20260266828A1, “BIOMARKERS FOR PREDICTING CANCER TREATMENT EFFICACY” (Arcus Biosciences, Inc., priority 2023, published 2026)

How the values were obtained:
[1] = tested on: metastatic (Stage IV) squamous or non-squamous NSCLC; assay: PFS in serum cytokine selected subsets of the trial of Example 2; assay type: in vivo, human; details: median
Method: (§1) Soluble biomarkers were retrospectively analyzed in baseline and on-treatment peripheral blood derived samples obtained from a subset of subjects enrolled in the clinical trial of Example 2. Baseline samples were obtained on day 1 of cycle 1 (CID1), prior to administration of any study drugs. On-treatment samples were obtained on day 1 of cycle 2 (C2D1), prior to administration of study drugs on that day.
(§2) Blood collected in serum separator tubes was allowed to clot for 30-60 minutes before centrifugation at 1300 g for 10 minutes to separate the serum. Serum was isolated and stored at −80° C. until cytokine analysis. Serum cytokines were quantified in multiplex assays using the Meso Scale Discovery platform following the manufacturer's protocol. Briefly, plates were coated with biotinylated capture antibodies specific to the analyte of interest bound to linkers specific to unique spots in each well of a 96-well plate. Serum samples, assessed in duplicate, were diluted 8-fold to quantify CXCL9, CXCL10, CXCL11 and IL-18 in a U-plex assay, diluted 10-fold to quantify IL-12B in a U-plex assay, and diluted 5-fold to quantify IFNγ, TNFα and IL-6 in the S-plex assay. Samples were incubated on linker/capture antibody-coated plates, followed by detection with a sulfo-tag-labelled antibody for the U-plex assays and a TURBO-tag-labelled antibody for the S-plex assay. For the S-plex assay, additional steps incorporated in the manufacturer's protocol to amplify signal with enhance solution and detection solution were followed. Following addition of read buffer, the electrochemiluminescent signal was measured on a MESO Sector S 600 instrument. Between each step of the protocol plates were washed with 0.05% Tween-PBS. A standard curve was generated for each plate using a 4-parameter logistic fit with 1/y^2 weighting. Cytokine concentrations in samples were interpolated using the standard curve, allowing quantification of the analyte of interest. Fold change from baseline was calculated as a ratio of the cytokine concentration at C2D1 over the cytokine concentration at baseline. A linear mixed model performed on log transformed raw cytokine values with baseline values as covariates assessed the difference in cytokine levels over time and between treatment groups.
Kaplan-Meier survival plots using progression-free survival data and cytokine concentrations were generated in the Jmp software, and hazard ratios were calculated between patient groups of interest. Comparisons were made for each analyte between zimberelimab monotherapy and domvanalimab combination groups both at baseline and using the fold change at C2D1 using median values to stratify patients in to low and high cytokine groups. Stratifying subjects by baseline cytokine expression (e.g., CXCL9, CXCL10, CXCL11, LL-6, TNFα) around the median value (high vs. low) enriched for clinical benefit with the addition of domvanalimab. Baseline reference values derived from the biomarker evaluable population (BEP) are as follows (high is ≥reference value, and low is <reference value): CXCL9: 278.7 pg/mL; CXCL10: 445.4 pg/mL; CXCL11:104.2 pg/mL; L-6: 15550 fg/mL; TNFα: 1194 fg/mL. Induction reference values derived from the BEP are as follows (high is ≥reference value, and low is <reference value): CXCL9: 1.76 fold change; CXCL10: 1.52 fold change; […]: 1.14 fold change IL-18: 1.1 fold change; IFNγ: 1.23 fold change.

[2] = tested on: CXCL9, CXCL10, CXCL11, IL-12B, IL-18, IL-6, IFNγ, TNFα; assay: Serum cytokines, Meso Scale Discovery multiplex assays, baseline and C2D1; assay type: in vivo, human
Method: as §1, §2

B1: zimberelimab (antibody, chains of the INN, looked up, V domains shown)
VH: QLQLQESGPGLVKPSETLTLTCTVSADSISSTTYYWVWIRQPPGKGLEWIGSISYSGSTYYNPSLKSRVTVSVDTSKNQFSLKLNSVAATDTALYYCARHLGYNGRYLPFDYWGQGTLVTVSS
VL: QSALTQPASVSGSPGQSITISCTGTSSDVGFYNYVSWYQQHPGKAPELMIYDVSNRPSGVSDRFSGSKSGNTASLTISGLQAEDEADYYCSSYTSISTWVFGGGTKLTVL
notes: zimberelimab monotherapy 360 mg IV Q3W; anti-PD-1 antibody
[1]; BEP (fold change from baseline to C2D1)
  PFS: 5.7 mo
[1]; BEP for cytokine analysis (baseline samples)
  PFS: 5.6 mo
[1]; CXCL9 High Induction at C2D1 (≥1.76 fold change)
  PFS: 2.7 mo
[1]; CXCL9 High at Baseline (≥278.7 pg/mL)
  PFS: 4 mo
[1]; CXCL9 Low Induction at C2D1 (<1.76 fold change)
  PFS: 9.7 mo
[1]; CXCL9 Low at Baseline (<278.7 pg/mL)
  PFS: 7.6 mo
[1]; CXCL10 High Induction at C2D1 (≥1.52 fold change)
  PFS: 2.7 mo
[1]; CXCL10 High at Baseline (≥445.4 pg/mL)
  PFS: 5.4 mo
[1]; CXCL10 Low Induction at C2D1 (<1.52 fold change)
  PFS: 11.7 mo
[1]; CXCL10 Low at Baseline (<445.4 pg/mL)
  PFS: 7.6 mo
[1]; CXCL11 High at Baseline (≥104.2 pg/mL)
  PFS: 4.9 mo
[1]; CXCL11 Low at Baseline (<104.2 pg/mL)
  PFS: 5.6 mo
[1]; IFNγ High Induction at C2D1 (≥1.23 fold change)
  PFS: 4.5 mo
[1]; IFNγ Low Induction at C2D1 (<1.23 fold change)
  PFS: 11.7 mo
[1]; IL-6 High at Baseline (≥15550 fg/mL)
  PFS: 1.8 mo
[1]; IL-6 Low at Baseline (<15550 fg/mL)
  PFS: 9.6 mo
[1]; IL-12B High Induction at C2D1 (≥1.14 fold change)
  PFS: 9.6 mo
[1]; IL-12B Low Induction at C2D1 (<1.14 fold change)
  PFS: 2.5 mo
[1]; IL-18 High Induction at C2D1 (≥1.1 fold change)
  PFS: 5.7 mo
[1]; IL-18 Low Induction at C2D1 (<1.1 fold change)
  PFS: 4.5 mo
[1]; TNFα High at Baseline (≥1194 fg/mL)
  PFS: 3.5 mo
[1]; TNFα Low at Baseline (<1194 fg/mL)
  PFS: 5.7 mo
[2]; C2D1 over baseline
  CXCL9, Fold change, median: 2.4
  CXCL10, Fold change, median: 1.7
  CXCL11, Fold change, median: 1.6
  IFNγ, Fold change, median: 1.6
  IL-6, Fold change, median: 1.0
  IL-12B, Fold change, median: 1.5
  IL-18, Fold change, median: 1.2
  TNFα, Fold change, median: 1.2
[2]; day 1 of cycle 2, pre-dose
  CXCL9, C2D1, median: 621 pg/mL
  CXCL10, C2D1, median: 639 pg/mL
  CXCL11, C2D1, median: 172 pg/mL
  IFNγ, C2D1, median: 1100 fg/mL
  IL-6, C2D1, median: 14385 fg/mL
  IL-12B, C2D1, median: 284 pg/mL
  IL-18, C2D1, median: 779 pg/mL
  TNFα, C2D1, median: 1336 fg/mL
